Columns and labels:
[1] = target: T1, FaPOD27 (Fragaria x ananassa, UniProt J7IER7); experiment: LC-UV-ESI-MSn product identification; type: biochemical; conditions: H2O2, sodium tartrate pH 3.5, room temperature; crude E. coli protein
T1 construct: GST fusion, E. coli, crude protein
T1 sequence (J7IER7 1-329): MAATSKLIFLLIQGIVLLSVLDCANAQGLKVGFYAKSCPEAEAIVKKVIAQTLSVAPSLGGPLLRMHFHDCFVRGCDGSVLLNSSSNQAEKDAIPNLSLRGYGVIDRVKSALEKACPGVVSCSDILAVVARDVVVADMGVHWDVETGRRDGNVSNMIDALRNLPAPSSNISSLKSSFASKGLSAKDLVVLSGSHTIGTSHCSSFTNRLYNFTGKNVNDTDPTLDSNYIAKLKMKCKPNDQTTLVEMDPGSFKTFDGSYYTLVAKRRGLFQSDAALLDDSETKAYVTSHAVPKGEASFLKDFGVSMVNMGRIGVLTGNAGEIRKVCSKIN

[2] = target: T2, FaCAD (Fragaria x ananassa, UniProt J7IAL0); experiment: LC-UV-ESI-MSn product identification; type: biochemical; conditions: NADPH 200 μM, coniferaldehyde 100 μM, sodium phosphate pH 6.5, 30 °C; crude yeast protein
T2 construct: full-length ORF 1077 bp, 359 aa, 39 kDa; pYES2 in S. cerevisiae INVSc1, crude protein
T2 sequence (J7IAL0 1-359): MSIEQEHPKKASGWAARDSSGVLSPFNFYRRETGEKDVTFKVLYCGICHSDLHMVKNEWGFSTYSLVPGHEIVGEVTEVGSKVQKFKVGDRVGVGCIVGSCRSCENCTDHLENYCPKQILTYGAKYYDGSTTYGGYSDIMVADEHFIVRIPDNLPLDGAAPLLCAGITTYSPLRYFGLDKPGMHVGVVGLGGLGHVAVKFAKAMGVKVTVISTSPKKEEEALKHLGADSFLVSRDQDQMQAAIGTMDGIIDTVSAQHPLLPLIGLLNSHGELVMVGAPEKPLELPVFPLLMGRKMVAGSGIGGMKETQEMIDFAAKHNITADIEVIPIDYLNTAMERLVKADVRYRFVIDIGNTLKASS

[3] = substrate: COc1cc(/C=C/C(=O)SCCNC(=O)CCNC(=O)[C@H](O)C(C)(C)COP(=O)(O)OP(=O)(O)OC[C@H]2O[C@@H](n3cnc4c(N)ncnc43)[C@H](O)[C@@H]2OP(=O)(O)O)ccc1O; experiment: spectrophotometric CCR assay; type: biochemical, Fragaria x ananassa; conditions: NADPH, sodium phosphate, pH optimum 6, 25 °C, apparent Km
From the text: (§1) spectrophotometric CCR assay on GST-FaCCR

[4] = substrate: CC(C)(COP(=O)(O)OP(=O)(O)OC[C@H]1O[C@@H](n2cnc3c(N)ncnc32)[C@H](O)[C@@H]1OP(=O)(O)O)[C@@H](O)C(=O)NCCC(=O)NCCSC(=O)/C=C/c1ccc(O)c(O)c1; experiment: spectrophotometric CCR assay; type: biochemical, Fragaria x ananassa; conditions: NADPH, sodium phosphate, pH optimum 6, 25 °C, apparent Km
From the text: as §1

[5] = substrate: CC(C)(COP(=O)(O)OP(=O)(O)OC[C@H]1O[C@@H](n2cnc3c(N)ncnc32)[C@H](O)[C@@H]1OP(=O)(O)O)[C@@H](O)C(=O)NCCC(=O)NCCSC(=O)/C=C/c1ccc(O)cc1; experiment: spectrophotometric CCR assay; type: biochemical, Fragaria x ananassa; conditions: NADPH, sodium phosphate, pH optimum 6, 25 °C, apparent Km
From the text: as §1

With `COc1cc(/C=C/CO)ccc1O` [coniferyl alcohol] the LC-UV-ESI-MSn product identification [1] was “ferulic acid and coniferyl alcohol were almost completely oxidized in the presence of H2O2”.

`COc1cc(/C=C/C=O)ccc1O` [coniferaldehyde] was tested, and the LC-UV-ESI-MSn product identification [2] was “FaCAD was expressed in yeast cells and showed that coniferyl alcohol was generated”.

With `COc1cc(/C=C/C(=O)O)ccc1O` [ferulic acid] the LC-UV-ESI-MSn product identification [1] was “ferulic acid and coniferyl alcohol were almost completely oxidized in the presence of H2O2”.

B1: GST-FaCCR (Fragaria x ananassa) (protein)
chain: MPVDNCSSLSGHGQTVCVTGAGGFFASWLVKLLLERGYNVRGTVRNPEDPKNAHLRELEGAKERLSLRKADLLDFESLKEAINGCDGVFHTASPVTDDPEQMVEPAVNGTKNVIVAAAEAKVKRVVFTSSIGAVYMDPARGPDVVVDESCWSDLEFCKNTKNWYCYGKAVAEQAAWEEAKERGVDLVVVNPVLVLGPLLQPTINASIIHILKYLTGSAKTYANSVQAYVHVKDVALAHILVYETPSASGRYLCAESVLHRGDVVEILAKFFPEYPIPSKLKDDGKPRAIPYKFSNQKLQDLGLEFTSVKQSLYDTVKSLQEKGHLKVPTKQEEDSFKIQ
B1 gave a Km [3] of 16.11 ± 1.39 µM, a kcat/Km [3] of 145 M⁻¹ s⁻¹ and a Km [4] of 25.48 ± 0.82 µM. It also gave a kcat/Km [4] of 1.15 M⁻¹ s⁻¹, a Km [5] of 24.75 ± 1.23 µM and a kcat/Km [5] of 1.07 M⁻¹ s⁻¹.
